Literature values as cited in publication PMC7191063.

Key:
trypsin (Bos taurus) [1] = target: trypsin (Bos taurus) (UniProt P00760)
trypsin (Bos taurus) [2] = target: trypsin (Bos taurus) (UniProt P00760); remark: listed apart in the source

Chain of UniProt P00760 (P00760 149-246): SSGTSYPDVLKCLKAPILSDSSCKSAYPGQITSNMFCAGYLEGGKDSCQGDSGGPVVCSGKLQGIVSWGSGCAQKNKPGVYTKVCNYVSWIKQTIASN

| Ki (trypsin (Bos taurus) [1]) | Kd (trypsin (Bos taurus) [2]) | Substance |
| --- | --- | --- |
| 174 pM | – | BWI-2c (from UniProt P86794) |
| – | < 1000 pM | VhTI (from UniProt P85981) |
